± gives the uncertainty stated by the source.

A short description of this series: amyloid nucleation score (Sup35N fusion, yeast selection) (log enrichment); library NNK2; higher = more nucleation; inactive = no reads after selection. In short, it runs like this:
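The nucleation score is the log enrichment of output over input reads, calculated with DiMSum and centred on the mode score of non-aggregating sequences. Sequences with under 100 input reads were excluded. Reads came from Illumina sequencing of plasmid inserts from psi-negative yeast expressing Sup35N fused to peptides of 20 random codons, induced 24 hours with 100 μM copper sulfate and grown 7 days at 30°C without adenine and uracil.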

EFWPKELIRSDDSASFNGMS yielded an amyloid nucleation score of 0.007 ± 1.1.
In the case of DCYSQPMLRVLDSVAHSVWF, the amyloid nucleation score came to 0.369 ± 0.43.
The value for KCLFES was 0.144 ± 0.77; that for IKCFAMGETFLAKVVHCTCW was 4.04 ± 0.065; that for GVMRSCCEIWTFSIVFRMYT was 0.604 ± 0.31.
As for YRDRINSNYFALDFNILLHY, the amyloid nucleation score is 3.57 ± 0.046.
SKVLNGFYIWYHQVPQLYPL: the amyloid nucleation score is -1.19 ± 1.
As for PSLLFFSCV, the amyloid nucleation score is -0.366 ± 0.56.
The value for NVKSYKGQRFVAFGGGSVYA was 0.567 ± 0.32; that for YNYLCWNRKKGANRTCVSGR was -0.502 ± 0.44; that for NNSYVFFFI was 7.013 ± 0.064.
Consider WNVWVYLAAAVSGGGPTCVS, for which the amyloid nucleation score was 4.72 ± 0.076.
The value for YGYKMVTSYVGFL was 0.753 ± 0.81; that for LDTCVFHHLVGIEKATIYR was 0.455 ± 0.48.
NIYGDNVGCYSTECYNTKLI returned an amyloid nucleation score of -0.305 ± 0.74.
The substance LLACVSVMFLRSSLINLDRL came in with an amyloid nucleation score of -0.637 ± 0.54.
In turn, VHCDYVIELGPGWWVRNWGS gave an amyloid nucleation score of 0.42 ± 0.54.
The substance GIIDLHAYLFKVHEWAHPHR showed an amyloid nucleation score of 6.07 ± 0.063.
Regarding TVFFIVPLCSLLDKVNSLGA, the amyloid nucleation score was 3.34 ± 0.086.
On to WVYKWIWRLFDGFHHQLMLS, for which the amyloid nucleation score entry is “inactive”.
The result for YPYSPLSKRRNLRWINFVRC reads -1.46 ± 1.1; that for SRFISLSSEDVSALNTCNNR, 1.25 ± 0.61; that for LHLFAKSATSLVIVFAQDLI, -0.455 ± 0.42.
Consider TNCTDEGIILCHP, for which the amyloid nucleation score is -0.19 ± 1.1.
Turning to FVSHYHTAHTVEMASSQLTN, the amyloid nucleation score came to 0.503 ± 0.38.
On to GIPVMPTDSRGTPGVMVFEY, for which the amyloid nucleation score is -1.25 ± 1.
As to CCYQVSYCIVSVIDSVEYGP, the amyloid nucleation score stood at 6.991 ± 0.033.
RHLISSLRELHTTLNLHRPE: the amyloid nucleation score was found to be 0.101 ± 0.76.
With TTGRWVVLRG, the amyloid nucleation score is 0.342 ± 0.39.
With YIIFGSRLVDRGSLQ, the amyloid nucleation score turned out to be 2.95 ± 0.16.
Regarding IALKFFH, the amyloid nucleation score was determined as 0.882 ± 0.3.
In the case of YASISI, the amyloid nucleation score result was “inactive”.
For the substance AESWVNYRGRDV, the amyloid nucleation score is 0.472 ± 0.8.
For SIMGRIKIAIHVLRS, the amyloid nucleation score is 4.12 ± 0.091.
FQFRCCTM: the amyloid nucleation score worked out at 9.232 ± 0.024.
In turn, SGQKFN gave an amyloid nucleation score of 0.015 ± 0.76.
On to IASTVDFKSLIISGDPSRQF, for which the amyloid nucleation score was -0.235 ± 0.46.
In turn, KEVCEKTMFMCSWVK displayed an amyloid nucleation score of -0.809 ± 1.1.
On to YYSFPISIGWVSNCMFVWEV, for which the amyloid nucleation score was determined as 6.53 ± 0.073.
The result for YSSSKNTVVMSAKSMVRLRT reads 0.52 ± 0.56; that for HNLFNHIADNQGRGIEEKLT, -0.003 ± 1.1; that for YKCRDLFGGRQINREHYLCY, -1.26 ± 0.62.
With DSFLTLTCGFRSNALYCWGV, the amyloid nucleation score was -0.663 ± 0.55.
As for GQYVQCNMSCVYVFLQWQRR, the amyloid nucleation score came to 6.262 ± 0.033.
KDGSPYKYLA had an amyloid nucleation score of -0.554 ± 0.63.
Regarding FRGTCYMAIVDYLCNTFEGP, the amyloid nucleation score amounted to 1.37 ± 0.11.
With NNMKVDAVVYIATKPGHWDQ, the amyloid nucleation score came out at 7.589 ± 0.034.
The value for WGFTLWKLWRV was 0.676 ± 0.15.
HVFLINLGLNCGQRYRYRSL had an amyloid nucleation score of 6.044 ± 0.047.
Substance NESNYRVVRGKFKSEFRAEL showed an amyloid nucleation score of 3.61 ± 0.13.
SVANERR came in with an amyloid nucleation score of 5.7 ± 0.065.
On to LVTVSVVPSWSAVRPTGMNV, for which the amyloid nucleation score came out at 0.84 ± 0.46.
In turn, ITLGLQLCGFNCMTGLVRWS gave an amyloid nucleation score of -0.079 ± 0.76.
The substance AMLDLRINTSRAGSHSRVVT yielded an amyloid nucleation score of 2.81 ± 0.069.
The value for YYLFGKF was -0.509 ± 1.1.
In turn, SVVMTIHNIGWMLRCSGIVY showed an amyloid nucleation score of -0.823 ± 0.56.
Regarding LSNKRKVSSLLM, the amyloid nucleation score entry is “inactive”.
Consider CNGSRVKDFRCRFRWNGLGL, for which the amyloid nucleation score is -0.889 ± 0.41.
Substance TNDASYSIDLWW yielded an amyloid nucleation score of -0.304 ± 0.18.
The substance RLLNPRVSKVWICAHNARDL gave an amyloid nucleation score of 1.1 ± 0.24.
In turn, AQNYYMY had an amyloid nucleation score of 6.88 ± 0.087.
The result for SFILD reads “inactive”; that for VPICLSS, “inactive”.
On to HVKRD, for which the amyloid nucleation score was determined as 3.23 ± 0.16.
LKPPLVAHHGNILCGFLGDG had an amyloid nucleation score of -1.39 ± 0.78.
The substance LPHKIM returned an amyloid nucleation score of 0.262 ± 0.53.
Turning to NFCPLPLVRCIECLRTMDGV, the amyloid nucleation score entry is “inactive”.
On to GCGGDKKDFVISFWWEKYFR, for which the amyloid nucleation score was -1.74 ± 0.53.
As to ALFIRVYMLFRRCEECSLQV, the amyloid nucleation score is 7.575 ± 0.055.
The result for TAFNIVSCSGLCSYYQFRF reads 8.109 ± 0.03; that for VVSVFSSYVRQCCYGGWEV, 6.67 ± 0.077.
The result for LALSFIMMCPYR reads 4.95 ± 0.079.
As to PRLKMLRWAGVNQS, the amyloid nucleation score is -0.011 ± 0.4.
NALSIQVGSCPRSLISSVGP returned an amyloid nucleation score of 0.228 ± 1.
VLMINWMKVADFHEYFFICH registered an amyloid nucleation score of 6.3 ± 0.066.
On to SCGRMMTVVMIWGNWRSWSS, for which the amyloid nucleation score was -0.439 ± 0.76.
AFWLL gave an amyloid nucleation score of 1.81 ± 0.093.
With SALSGRYAKTLRNGHGLYQE, the amyloid nucleation score entry was “inactive”.
Consider SYAESLPLSDYNAVVRFPWT, for which the amyloid nucleation score was -0.304 ± 1.1.
Consider QFAHFKNLWVFVLSCRWLPT, for which the amyloid nucleation score was -0.158 ± 0.35.
For the substance QSTSQLRLYELSR, the amyloid nucleation score was -0.206 ± 1.1.
For HWTYTFRLNSSSSIYQNCSD, the amyloid nucleation score was -0.71 ± 1.
Consider SLRWL, for which the amyloid nucleation score is -0.18 ± 0.74.
As for TPENFHLR, the amyloid nucleation score result is “inactive”.
The result for NTYVRSRHMAMSYCRMQMCL reads 0.141 ± 0.27; that for SFYVIRVGSLPFRS, 3.25 ± 0.075; that for LRFRVLFVFPRDPW, -0.918 ± 0.78.
Take LMMKKTGCTQFISRYLVRIY: the amyloid nucleation score is -1.42 ± 1.
KVHNLMGESGIKLYYVRFAH: the amyloid nucleation score entry is “inactive”.
In turn, SSANDNLNTERDQARLVTRC yielded an amyloid nucleation score of -0.013 ± 0.36.
On to QRDDVISRCVYHYFKVVPGA, for which the amyloid nucleation score was -0.183 ± 0.55.
ASLTASAGVVFFYTPTRRYN displayed an amyloid nucleation score of 3.16 ± 0.14.
For the substance TSGQHD, the amyloid nucleation score was -0.133 ± 0.61.
The result for ADNFICIIETYSYILVWRSS reads -0.552 ± 0.78; that for PIRPVLWVQFVKTQYGPMIP, 4.68 ± 0.098.
Turning to EFFFRLMTDPTN, the amyloid nucleation score is -0.376 ± 0.63.
The value for ISYTVDQRRFTSLVRCLYDH was 0.322 ± 0.57; that for KSCFWLRDI was -0.457 ± 0.28; that for RLRKFESLLICDRISIIVRY was 0.621 ± 0.56.
In turn, AGYDATW had an amyloid nucleation score of 0.461 ± 0.65.
Take LPHKSLFDPLWRIGKILIQH: the amyloid nucleation score was 0.034 ± 1.1.
As to IAVRMALGLENNKFFLIVHK, the amyloid nucleation score was -1.44 ± 0.55.
YYSVGNAGL showed an amyloid nucleation score of -1.3 ± 0.39.
Regarding CHMDFERFRWLKFSLFCSLH, the amyloid nucleation score was -0.562 ± 1.1.
On to RSCATFIFVMS, for which the amyloid nucleation score was 4.98 ± 0.073.
As to YLRFYRSIINILIKGSAFCV, the amyloid nucleation score was -1.49 ± 1.1.
Regarding NERQEIIPDSSPETHVSNIT, the amyloid nucleation score came to 1.12 ± 0.12.
Substance YLPRRSGRLRPGMRNNMPFR gave an amyloid nucleation score of 0.12 ± 0.28.
Take CGFHYFFRSTGYMAVAIIIR: the amyloid nucleation score result was “inactive”.
For QVIFI, the amyloid nucleation score result is “inactive”.
Take EPGMKSRSNYMHGTKGEHHR: the amyloid nucleation score was -0.131 ± 0.45.
Take KARWLIFDDVFCCCKFGGWW: the amyloid nucleation score amounted to 9.018 ± 0.053.
Turning to RVVRLAFNPRPSDAWILYR, the amyloid nucleation score is 0.325 ± 0.34.
VDYASGGARGFGMVLRAFLE returned an amyloid nucleation score of 0.132 ± 0.42.
TCSGWTWRQGLLVLSCRMIL yielded an amyloid nucleation score of 0.287 ± 0.38.
As for TVSRLYEYWLLRMCIY, the amyloid nucleation score was -0.413 ± 1.
The result for MVVNVGK reads -0.088 ± 0.17; that for SKFLM, -1.14 ± 0.48.
Regarding KVLRLIRY, the amyloid nucleation score was determined as 1.25 ± 0.48.
For LCSWLEMGFIIRFAGIVRLD, the amyloid nucleation score was -0.292 ± 0.54.
Substance PSITPLACHHTRCNW yielded an amyloid nucleation score of -0.881 ± 0.28.
For the substance NTFFQYDPRHRGHTAGWCGE, the amyloid nucleation score was determined as 0.07 ± 0.54.
The result for SIIGVYLCFLSFRTNVLWKT reads -0.122 ± 0.27.
For the substance TLTILRVTCPLFSDGIMFKR, the amyloid nucleation score came out at 0.609 ± 0.47.
For GGYIQRNNDNRFAEQV, the amyloid nucleation score entry was “inactive”.
On to ALTPGYPSGARVP, for which the amyloid nucleation score worked out at 0.307 ± 0.49.
On to SDSKG, for which the amyloid nucleation score is 0.113 ± 1.1.
The value for NDTRSLLML was 0.259 ± 0.24; that for PCCRGRRSSLGRAIKGAEAK was 0.009 ± 0.23; that for AVRTLDNMGLYAWISAKVCR was -0.184 ± 0.79.
Turning to KWFGSRFYYLYKPPLFSHLA, the amyloid nucleation score entry is “inactive”.
Take SYYGFLSFCSKTCMPLMWLE: the amyloid nucleation score was -0.844 ± 0.54.
As to SMRYVVISKQRSILEISLRY, the amyloid nucleation score was 3.46 ± 0.047.
In turn, TTTQKGCGVYVAREVSWGLG gave an amyloid nucleation score of 2.56 ± 0.093.
As for AWDDL, the amyloid nucleation score amounted to 0.154 ± 0.45.
In the case of GVASNGKGFNTFMCAHCY, the amyloid nucleation score is -0.225 ± 0.41.
In turn, CRKRGH displayed an amyloid nucleation score of 1.33 ± 0.49.
Turning to QDNRYPLFVLSTLLSLIFLL, the amyloid nucleation score entry was “inactive”.
As to DGNNVVIWLLWLSANMTGAG, the amyloid nucleation score came out at 1.97 ± 0.13.
With LNMMIINISFRSKSVDGSRM, the amyloid nucleation score turned out to be 6.945 ± 0.056.
Turning to LCVIIMFLIIYYNEEFVWSQ, the amyloid nucleation score result is “inactive”.

These data come from the supplement of paper PMC12042874.
